# According to patent US6355256B1, “Compositions containing a p53 derived protein or peptide, an adjuvant, and interleukin-12 and uses thereof” (Ludwig Institute for Cancer Research, priority 1994, dated 2002):
# “Also recorded” adds a separate entry of the source. No end group written: not given here.
# Tests used:
# Meth A sarcoma [1] = assay: Suppression of growth of established Meth A tumors by peptide in adjuvant plus low dose IL-12; type: in vivo, BALB/C mice; conditions: for suppression of tumor growth: peptide in QS-21 or QS-21 alone at days 7 and 14 after Meth A challenge, IL-12 1 ng, 4 times a week for two weeks from day 7
# Method: As with the prior experiments, female BALB/C mice were injected with 5×10^4 Meth A cells at day 0. The mice received two injections of the mutant peptide in QS-21, the wild type peptide in QS-21, or QS-21 alone in the same manner described in Example 3, at weekly intervals. At day 7, the mice began receiving injections of 1 ng of IL-12 (4 times a week, for two weeks).
# FIG. 4A resulted from QS-21 plus the mutant peptide followed by injections of IL-12. FIG. 4B resulted from QS-21 plus peptide, followed by injections with IL-12. FIG. 4C resulted from QS-21 alone followed by injections of IL-12.
# [2] = test system: P1-HTR cells pulsed with peptide; assay: Generation of peptide-specific CTLs after immunization with peptide, adjuvant and IL-12 (51Cr release assay); type: cell-based, BALB/C mice
# Meth A sarcoma [3] = assay: Anti-tumor effect of IL-12 on established Meth A sarcoma in mice (tumor diameter); type: in vivo, BALB/C mice
# Method: The in vivo model employed used the transplantable, methylcholanthrene-induced sarcoma “Meth A.” This is a sarcoma of BALB/C (murine) origin, passaged as an ascitic tumor. See Old, et al, Ann. N.Y. Acad. Sci 101:80-106 (1962), incorporated by reference in its entirety.
# BALB/C female mice were injected intradermally with 5×10^4 Meth A cells on day 0. Seven days later, a treatment regime began, wherein the animals received doses of IL-12, 4 times a week. Control animals received no IL-12. The remaining animals received 1 ng, 10 ng, 100 ng, or 500 ng of IL-12 in each dose, administered by intraperitoneal injection.
# The effect of the IL-12 on the induced tumors was observed by measuring the diameter of the tumors at the end of the treatment period. FIGS. 1A, 1B, 1C, 1D and 1E show this. The panels show results with doses of 0 ng, 1 ng, 10 ng, 100 ng, and 500 ng, respectively.
# The effect of the IL-12 was abolished by administering monoclonal antibodies against CD8 molecules, but was not affected via administration of anti-CD4 mAbs.
# Meth A sarcoma [4] = assay: Timing of IL-12 administration relative to Meth A challenge; type: in vivo, BALB/C mice; conditions: 100 ng IL-12 at day -14, day 0 or day 7 relative to Meth A challenge
# Method: The importance of timing in the administration of IL-12 was then studied. In these experiments, female BALB/C mice were again injected with 5×10^4 Meth A cells, as in Example 1 (day 0). Injections of 100 ng IL-12 were administered at day “−14” (i.e., 14 days before challenge with the tumor cells), day 0, or day 7 (i.e., 7 days after challenge) as in Example 1.
Molecule,suppression of tumor growth (Meth A sarcoma [1]),"CTLs elicited following immunization ([2]; 100 μg peptide twice at weekly intervals, regardless of the adjuvant (QS-21 or IFA) or treatment with IL-12)","stimulation of an immune response when used alone (Meth A sarcoma [1]; each component alone, summary of the examples)","optimal dose of IL-12 for the generation of CTLs ([2]; IL-12 0.1, 1, 10 or 100 ng, four times over two weeks, with peptide in QS-21 or IFA)","effect of higher doses of IL-12 on generation of CTLs ([2]; IL-12 doses above 1 ng, with peptide in QS-21 or IFA)","anti-tumor effect (diameter of the tumors at the end of the treatment period) (Meth A sarcoma [3]; IL-12 1, 10, 100 or 500 ng i.p., 4 times a week from day 7 after 5×10^4 Meth A cells intradermally)",effect of the IL-12 on tumors when anti-CD4 mAbs are administered (Meth A sarcoma [3]; with anti-CD4 mAbs),effect of the IL-12 on tumors when monoclonal antibodies against CD8 are administered (Meth A sarcoma [3]; with anti-CD8 mAbs),effectiveness by timing of administration (Meth A sarcoma [4])
"KYMCNSSCM (cysteine pairing not given here) [wild type peptide, wild type counterpart of peptide 234 CM]",did not lead to suppression of tumor growth,No CTLs were elicited,,,,,,,
"IL-12: the cytokine interleukin-12 (protein, UniProt P29459 23-219; P29460 23-328, looked up) Interleukin-12 subunit alpha: RNLPVATPDPGMFPCLHHSQNLLRAVSNMLQKARQTLEFYPCTSEEIDHEDITKDKTSTVEACLPLELTKNESCLNSRETSFITNGSCLASRKTSFMMALCLSSIYEDLKMYQVEFKTMNAKLLMDPKRQIFLDQNMLAVIDELMQALNFNSETVPQKSSLEEPDFYKTKIKLCILLHAFRIRAVTIDRVMSYLNAS Interleukin-12 subunit beta: IWELKKDVYVVELDWYPDAPGEMVVLTCDTPEEDGITWTLDQSSEVLGSGKTLTIQVKEFGDAGQYTCHKGGEVLSHSLLLLHKKEDGIWSTDILKDQKEPKNKTFLRCEAKNYSGRFTCWWLTTISTDLTFSVKSSRGSSDPQGVTCGAATLSAERVRGDNKEYEYSVECQEDSACPAAEESLPIEVMVDAVHKLKYENYTSSFFIRDIIKPDPPKNLQLKPLKNSRQVEVSWEYPDTWSTPHSYFSLTFCVQVQGKSKREKKDRVFTDKTSATVICRKNASISVRAQDRYYSSSWSEWASVPCS",strong suppression of tumor growth; also recorded: growth suppressive effect,,none,1 ng,suppressive effect,dose dependent anti-tumor effect,not affected,abolished,most effective after the tumor had become established; also recorded: particularly effective after tumors have already formed
